Tests used:
alpha-synuclein monomer = alpha-synuclein monomer (UniProt P37840); test: SPR, antibody immobilized, steady state fitting
[1] = biological target: alpha-synuclein physiological tetramer (UniProt P37840); test: SPR, antibody immobilized, steady state fitting
[2] = biological target: alpha-synuclein oligomers (UniProt P37840); test: SPR, antibody immobilized, kinetic fitting, 1:1 model
[3] = biological target: alpha-synuclein sonicated preformed fibrils (soluble fibrils) (human) (UniProt P37840); test: as above
[4] = biological target: alpha-synuclein in Lewy Body Disease (LBD/DLB) brain (human) (UniProt P37840); test: dot blot signal on LBD brain extract over control brain extract

Row | Fold of reactivity LBD vs. Control (LBD / Control) [4] | Substance | Kd (alpha-synuclein monomer) | Kd [1] | Kd [2] | koff [2] | kon [2] | Kd [3] | koff [3] | kon [3]
1 | – | NI-202.12F4 (Creative Biolabs) (antibody) | 8.6 µM | 14 µM | 0.131 µM | 0.001 s⁻¹ | 7640 M⁻¹ s⁻¹ | 0.012 µM | 3.75e-05 s⁻¹ | 3100 M⁻¹ s⁻¹
2 | – | Prasinezumab, Human IgG, PRX002/RG7935, Creative Biolabs (antibody) | 0.1 µM | 0.05 µM | 0.072 µM | 0.00181 s⁻¹ | 25100 M⁻¹ s⁻¹ | 0.011 µM | 0.000209 s⁻¹ | 19500 M⁻¹ s⁻¹
3 | 3.8 fold | Syn-F1 aggregation/fibril preferring antibody | – | – | – | – | – | – | – | –
4 | 2.2 fold | pan-Alpha Syn Antibody (4D6) (Biolegend) | – | – | – | – | – | – | – | –

Source: patent US20230051538A1
